We go through eleven molecules from PMC9692563, “The HIV-1 Integrase C-Terminal Domain Induces TAR RNA Structural Changes Promoting Tat Binding”.

Data set [1] deals with Tat (HIV-1 primary isolate 133). The data set can be described thus: BLI. Particulars: EMSA: 20 mM MES pH 6.0, 150 mM NaCl, 2 mM DTT, 2 mM MgCl2, BSA, 8% PEG8000, 37 C 30 min (IN-FLm 2 h at 4 C); BLI: 50 mM HEPES pH 7.5, 200 mM NaCl, 2 mM BME, 5% ….
Data set [2] concerns the target T1, IN-CTD (HIV-1, UniProt P12497 1367-1435). Put plainly: EMSA; EMSA: 20 mM MES pH 6.0, 150 mM NaCl, 2 mM DTT, 2 mM MgCl2, BSA, 8% PEG8000, 37 C 30 min (IN-FLm 2 h at 4 C); BLI: 50 mM HEPES pH 7.5, 200 mM NaCl, 2 mM BME, 5%. As to conditions: protein: recombinant, tags: N-terminal 6xHis, label: 5' 32P.
For data set [3], the target named is T2, IN-CTD-dCT (HIV-1, UniProt P12497 1367-1417). Put plainly: EMSA; not affected by stem shortening; EMSA: 20 mM MES pH 6.0, 150 mM NaCl, 2 mM DTT, 2 mM MgCl2, BSA, 8% PEG8000, 37 C 30 min (IN-FLm 2 h at 4 C); BLI: 50 mM HEPES pH 7.5, 200 mM NaCl, 2 mM BME, 5%. As to conditions: protein: recombinant; tags: N-terminal 6xHis; label: 5' 32P; hairpin.
Data set [4] addresses T3, IN-FLm (HIV-1 integrase, mammalian expressed) (HIV-1, UniProt P12497 1148-1435). Put plainly: EMSA; EMSA: 20 mM MES pH 6.0, 150 mM NaCl, 2 mM DTT, 2 mM MgCl2, BSA, 8% PEG8000, 37 C 30 min (IN-FLm 2 h at 4 C); BLI: 50 mM HEPES pH 7.5, 200 mM NaCl, 2 mM BME, 5%. As to conditions: protein: recombinant, tags: N-terminal Flag, label: 5' 32P.
Data set [5] concerns the target T2, IN-CTD-dCT. The description is as above. As to conditions: protein: recombinant; tags: N-terminal 6xHis; label: 5' 32P; hairpin with bulge and hexaloop.
Data set [6] addresses IN-FL (integrase, E. coli) (HIV-1 NL4-3 (pNL4-3), UniProt P12497 1148-1435). Described as above. As to conditions: protein: recombinant; tags: N-terminal 6xHis; label: 5' 32P; hairpin with bulge and hexaloop.
For data set [7], the target named is T3, IN-FLm (HIV-1 integrase, mammalian …). Put plainly: EMSA; similar to wild type; EMSA: 20 mM MES pH 6.0, 150 mM NaCl, 2 mM DTT, 2 mM MgCl2, BSA, 8% PEG8000, 37 C 30 min (IN-FLm 2 h at 4 C); BLI: 50 mM HEPES pH 7.5, 200 mM NaCl, 2 mM BME, 5%. Particulars: protein: recombinant; tags: N-terminal Flag; label: 5' 32P; hairpin. On the technique in general: Mobility shift assays separate free from complexed probe on a gel.

Data set [8] concerns the target T1, IN-CTD. The data set can be described thus: BLI; 200 mM NaCl, 37 C; EMSA: 20 mM MES pH 6.0, 150 mM NaCl, 2 mM DTT, 2 mM MgCl2, BSA, 8% PEG8000, 37 C 30 min (IN-FLm 2 h at 4 C); BLI: 50 mM HEPES pH 7.5, 200 mM NaCl, 2 mM BME, 5%. Particulars: protein: recombinant; tags: N-terminal 6xHis; label: 3' biotin; hairpin.
Data set [9] deals with T2, IN-CTD-dCT. Described as above. Particulars: protein: recombinant; tags: N-terminal 6xHis; label: 3' biotin; hairpin.
Where [10] appears, read: hairpin with bulge and hexaloop.

One may read the Kd as the equilibrium constant for the complex coming apart. Take “CGUCCAUCUGGUCAUCUAGUGAUAUCAUCG [Bt-RNA(30)-mer]”: the equilibrium dissociation constant (Kd) in data set [1] worked out at 3840 nM. In turn, “GGGCCAGAUCUGAGCCUGGGAGCUCUCUGGCCC [Bt-TAR]” registered a dissociation constant Kd in [1] of 1490 nM.

B1: SD/Psi (structured_RNA)
RNA: GGGCGACUGGUCAGUACGCCAAAAAUUUUGACUAGCGGAGGCUAGAAGGAG
Take B1: the binding result in data set [2] (hairpin) was “binds”.

B2: TAR-SS (structured_RNA)
RNA: GGGUCUCUCUGGUUAGACCAGAUCUGAGCUGGGACUCUCUGGCUAACUAGGGAACCC
Consider B2, for which the binding result in [3] is “binds”.

B3: TAR (structured_RNA)
RNA: GGGUCUCUCUGGUUAGACCAGAUCUGAGCCUGGGAGCUCUCUGGCUAACUAGGGAACCC
Turning to B3, the binding result in data set [4] (setting [10]), in data set [2] (setting [10]), in data set [5] and in data set [6] was “binds” each time.

B4: TAR-LS (structured_RNA)
RNA: GGGUCUCUCUGGUUAGACCAGAUCUGAGCGCUGGGACGCUCUCUGGCUAACUAGGGAACCC
Take B4: in [7], the binding result was “binds”. Consider GGGCACUGCUUAAGCCUCAAUAAAGCUUGCCUUGAGUGCUUCAAGUAGUG (structured_RNA) [polyA], for which the binding result in [2] (hairpin) is reported as “binds”.

For the molecule GGGCUCGGCUUGCUGAAGCGCGCACGGCAAGAGGCGAG (structured_RNA) [DIS], the binding result in data set [2] (hairpin) was “binds”.

B5: TAR-VSS (structured_RNA)
RNA: GGGUCUCUCUGGUUAGACCAGAUCUGAGCGCUCUCUGGCUAACUAGGGAACCC
With B5, in data set [3], the binding result is listed as “binds”. On to CGUCCAUCUGGUCAUCUAGUGAUAUCAUCG (ssRNA) [RNA(30)-mer], for which the binding result in [4] (weakly structured) is “binds”. As for GGGCCAGAUCUGAGCCUGGGAGCUCUCUGGCCC (structured_RNA) [Bt-TAR], the results for the Kd in data set [8] and in data set [9] were 320 nM and 770 nM, respectively.
